Results reported in publication PMC7545742, “A Toolbox for Site-Specific Labeling of RecQ Helicase With a Single Fluorophore Used in the Single-Molecule Assay”.

Columns and labels:
[1] = biological target: T1, RecQ-Cy5 (sortase A ligation of RecQ516-LPETG and Cy5-GGG-HRDC) (Escherichia coli, UniProt P15043 1-516+=LPETGGG+524-609+=VD, E609C;internal_change); test: smFRET; RecQ-Cy5, same conditions (5 nM); EFRET 0 to ~0.92; duration 5.19 +/- 0.28 s; HRDC contacts 5' end; smFRET on DNA with biotinylated strand in reaction chamber; 5 nM RecQ-Cy5 bound 2 min, then washed; reaction buffer composition, pH and temperature not in the material; conditions: protein: recombinant; tags: Cy5-maleimide at C610; label: Cy3 5' of strand 1; biotin 5' of strand 2; fork 1:2, 17 bp stem, 5' arm 7 nt (strand 1), 3' arm 10 nt (strand 2)
[2] = biological target: T1, RecQ-Cy5 (sortase A ligation of …); test: smFRET; 5 nM RecQ-Cy5, free protein washed off; EFRET 0 to ~0.5; duration 5.17 +/- 0.82 s; smFRET on DNA with biotinylated strand in reaction chamber; 5 nM RecQ-Cy5 bound 2 min, then washed; reaction buffer composition, pH and temperature not in the material; conditions: protein: recombinant; tags: Cy5-maleimide at C610; label: Cy3 3' of strand 1; biotin 3' of strand 2; 3' overhang 10 nt, 18 bp stem; one A:G mismatch (strand 1 nt 8)
[3] = biological target: T1, RecQ-Cy5 (sortase A ligation of …); test: smFRET; 5 nM RecQ-Cy5, free protein washed off; EFRET 0 to ~0.84; duration 4.65 +/- 0.17 s; HRDC contacts 3' end; smFRET on DNA with biotinylated strand in reaction chamber; 5 nM RecQ-Cy5 bound 2 min, then washed; reaction buffer composition, pH and temperature not in the material; conditions: protein: recombinant; tags: Cy5-maleimide at C610; label: Cy3 3' of strand 1; biotin 3' of strand 2; 3' overhang 15 nt, 18 bp stem; one A:G mismatch (strand 1 nt 8)
wild-type RecQ helicase = wild-type RecQ helicase (Escherichia coli, UniProt P15043 1-609); test: smFRET; EFRET 0.92 to 0.54; bound dwell time 4.47 +/- 0.23 s; smFRET on DNA with biotinylated strand in reaction chamber; 5 nM RecQ-Cy5 bound 2 min, then washed; reaction buffer composition, pH and temperature not in the material; conditions: protein: recombinant; label: Cy3 3' of strand 1; internal Cy5 after nt 4 and biotin 3' of strand 2; 3' overhang 10 nt, 16 bp stem; one A:G mismatch (strand 1 nt 8)

B1: fork DNA, 10-nt 3' overhang and 7-nt 5' overhang (mixed)
DNA 1: TTTTTTTATGTATGACAAGGAAGG
DNA 2: CCTTCCTTGTCATACATAAATTTTTTT
modifications: none
B1: binds [1].

B2: 3' 10-nt overhang DNA, Cy3 (mixed)
DNA 1: AATCCGTAGAGCAGAGGTGTGTGTGGTG
DNA 2: ACCTCTGCTCGACGGATT
modifications: none
B2: binds [2].

B3: 3' 15-nt overhang DNA, Cy3 (mixed)
DNA 1: AATCCGTAGAGCAGAGGTGTGTGTGGTGTTTTT
DNA 2: ACCTCTGCTCGACGGATT
modifications: none
B3: binds [3].

B4: 16 bp with 3' 10-nt overhang, Cy3/Cy5 (mixed)
DNA 1: AATCCGTAGAGCAGAGGTGTGTGTGG
DNA 2: CTCTGCTCGACGGATT
modifications: none
B4: binds (wild-type RecQ helicase).
